Reference: US20030157101A1, “Immunogenic ALK peptides” (priority 2001, published 2003)

Molecular target: T1, HLA-A*0201 molecules on TAP-deficient T2 cells (human)
T1 construct: Peptide-receptive class I molecule on T2 cells; also called HLA-A2.1; HLA-A2
Test: T2 cell HLA-A*0201 stabilisation, 100 uM peptide, flow cytometry with mAb BB7.2; mean of 4 experiments ± SEM
Procedure: T2 cells were incubated with 100 μM of peptide in serum-free RPMI 1640 supplemented with 5 μg/ml of human β₂m (Fluka, Buchs, Germany) for 18 hrs at 37° C.

B1: ALK peptide p621-629 (SLTANMKEV) (peptide)
peptide: SLTANMKEV
notes: C-terminal portion of the protein; also called p621-29
  FI (Fluorescence Index): 3.5 ratio (sample / irrelevant-peptide control)
